Experimental data reported in PMC2798008.

T1: SaeRHis (Staphylococcus aureus USA300, UniProt Q2FIT4 1-228)
T1 sequence: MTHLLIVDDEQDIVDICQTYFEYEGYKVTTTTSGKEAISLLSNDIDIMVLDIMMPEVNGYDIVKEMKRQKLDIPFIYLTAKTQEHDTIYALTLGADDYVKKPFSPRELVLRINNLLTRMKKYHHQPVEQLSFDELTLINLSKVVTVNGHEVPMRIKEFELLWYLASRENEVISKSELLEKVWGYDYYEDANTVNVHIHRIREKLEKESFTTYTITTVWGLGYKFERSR


Molecular target: T1, SaeRHis
Experiment: EMSA

Binder | binding result
sbi promoter (dsDNA) DNA 1: CACTAGTTAATCTATTAGTTAACATTAGTTAATAATTAGTTAATTTCCAT DNA 2: ATGGAAATTAACTAATTATTAACTAATGTTAACTAATAGATTAACTAGTG | binds
agrB promoter (dsDNA) DNA 1: ATTTAACAGTTAAGTATTTATTTCCTACAGTTAGGCAATATAATGATAAA DNA 2: TTTATCATTATATTGCCTAACTGTAGGAAATAAATACTTAACTGTTAAAT | no binding
